Square brackets hold non-standard residues; d marks the D form. Ends that are not written are not given here. Aib = CC(C)(N)C(=O)O
T1: human glucose-dependent insulinotropic polypeptide receptor (GIPR), expressed on CHO-K1 cells (human, UniProt P48546 22-466)
T1 sequence (looked up): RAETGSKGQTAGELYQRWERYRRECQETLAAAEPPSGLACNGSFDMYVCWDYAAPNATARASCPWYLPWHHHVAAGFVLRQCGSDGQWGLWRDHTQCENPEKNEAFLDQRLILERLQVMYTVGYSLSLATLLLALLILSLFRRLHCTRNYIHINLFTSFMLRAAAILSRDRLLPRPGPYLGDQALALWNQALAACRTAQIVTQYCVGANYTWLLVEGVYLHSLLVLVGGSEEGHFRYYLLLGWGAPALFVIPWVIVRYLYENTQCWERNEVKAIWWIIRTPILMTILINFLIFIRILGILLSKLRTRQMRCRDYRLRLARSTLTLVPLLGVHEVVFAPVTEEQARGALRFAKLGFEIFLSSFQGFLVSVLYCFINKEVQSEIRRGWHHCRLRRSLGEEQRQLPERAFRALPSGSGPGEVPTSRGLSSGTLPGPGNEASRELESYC

B1: Peptide No. 5-2A (peptide)
peptide: Y[Aib]QGTFTSDYSKYLDYMMQRDFVQWLIEGGPSSGAPPPSC-NH2
modifications: not fully specified (residue 40)
B2: Peptide No. 18 (with C-terminal cysteine) (peptide)
peptide: H[Aib]QGTFTSDHSWYLDKWTAHDFVQWLINGGPSSGAPPPSC-NH2
B3: Peptide No. 57 (with C-terminal cysteine) (peptide)
peptide: H[Aib]QGTFTSDHSKYLDGAWAADFVMWLLDGGPSSGAPPPSC-NH2

What follows are binders tested against T1, human glucose-dependent insulinotropic … (assay: cell-based or functional assay).

Binder	EC50 (nM), cAMP assay [nM]
B1	24.7

Each binder was assayed against T2, human glucagon receptor (GCGR), expressed on CHO-K1 cells (human, UniProt P47871 26-477) (assay: cell-based or functional assay).
T2 sequence (P47871 26-477): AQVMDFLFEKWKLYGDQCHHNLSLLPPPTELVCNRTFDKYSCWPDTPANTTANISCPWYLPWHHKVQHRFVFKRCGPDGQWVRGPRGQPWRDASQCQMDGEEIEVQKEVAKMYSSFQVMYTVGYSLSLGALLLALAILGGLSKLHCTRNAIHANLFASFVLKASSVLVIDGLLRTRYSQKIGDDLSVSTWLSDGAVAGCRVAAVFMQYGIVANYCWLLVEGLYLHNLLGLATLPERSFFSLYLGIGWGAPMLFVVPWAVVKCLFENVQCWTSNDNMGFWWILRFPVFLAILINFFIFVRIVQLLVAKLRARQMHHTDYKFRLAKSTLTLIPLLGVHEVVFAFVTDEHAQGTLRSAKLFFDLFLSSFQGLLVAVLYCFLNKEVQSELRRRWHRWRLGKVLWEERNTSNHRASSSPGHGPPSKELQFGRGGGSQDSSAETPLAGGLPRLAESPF

Binder	EC50 (nM), cAMP assay [nM]
B1	23

These binders were tested against T3, human GLP-1 receptor (GLP-1R), expressed on CHO-K1 cells (human, UniProt P43220 24-463) (assay: cell-based or functional assay).

Binder	EC50 (nM), cAMP assay [nM]
B1	0.348

Target: T1, human glucose-dependent insulinotropic …
Test: cell-based or functional assay
Remark: another data set of the same source

Binder	Percentage change in EC50 relative to GIP at human GIPR (%)
B2	0
B3	0

Target: T3, human GLP-1 receptor (GLP-1R), …
Test: cell-based or functional assay
Remark: another data set of the same source

Binder	Percentage change in EC50 relative to GLP-1 at human GLP-1R (%)
B2	40
B3	1

Target: T1, human glucose-dependent insulinotropic …
Test: cell-based or functional assay
Remark: another data set of the same source

Binder	Relative % to non-lipidated peptide [%]
B1	0.4

Target: T2, human glucagon receptor (GCGR), …
Test: cell-based or functional assay
Remark: another data set of the same source

Binder	Relative % to non-lipidated peptide [%]
B1	1

Target: T3, human GLP-1 receptor (GLP-1R), …
Test: cell-based or functional assay
Remark: another data set of the same source

Binder	Relative % to non-lipidated peptide [%]
B1	29

Target: T2, human glucagon receptor (GCGR), …
Test: cell-based or functional assay
Remark: another data set of the same source

Binder	Percentage change in EC50 relative to GCG at human GCGR (%)
B2	1
B3	1

Target: T1, human glucose-dependent insulinotropic …
Test: cell-based or functional assay
Remark: another data set of the same source

Binder	Activity relative to GLP-1 (%)
B1	2

Target: T2, human glucagon receptor (GCGR), …
Test: cell-based or functional assay
Remark: another data set of the same source

Binder	Activity relative to GLP-1 (%)
B1	0

Target: T3, human GLP-1 receptor (GLP-1R), …
Test: cell-based or functional assay
Remark: another data set of the same source

Binder	Activity relative to GLP-1 (%)
B1	100

Target: T1, human glucose-dependent insulinotropic …
Test: cell-based or functional assay
Remark: another data set of the same source

Binder	Relative % to native ligand [%]
B1	3

Target: T2, human glucagon receptor (GCGR), …
Test: cell-based or functional assay
Remark: another data set of the same source

Binder	Relative % to native ligand [%]
B1	1

Target: T3, human GLP-1 receptor (GLP-1R), …
Test: cell-based or functional assay
Remark: another data set of the same source

Binder	Relative % to native ligand [%]
B1	145

Target: T1, human glucose-dependent insulinotropic …
Test: cell-based or functional assay
Remark: another data set of the same source

Binder	Ratio vs. GLP-1R
B1	2

Target: T2, human glucagon receptor (GCGR), …
Test: cell-based or functional assay
Remark: another data set of the same source

Binder	Ratio vs. GLP-1R
B1	0

Target: T3, human GLP-1 receptor (GLP-1R), …
Test: cell-based or functional assay
Remark: another data set of the same source

Binder	Ratio vs. GLP-1R
B1	100

From patent publication US20250296960A1, “PEPTIDE COMPOSITIONS AND METHODS OF USE THEREOF” (priority 2022, published 2025)
